# Source: paper doi:10.1101/2020.03.05.978023
# How the values were obtained:
# [1] = target: Human DND1 (Dead end protein homolog 1) RRM2 domain (139-217) (human); test: SEC
# [2] = target: Human DND1 (Dead end protein homolog 1) RRM2 domain (139-217) (human); test: crystal structure
substance,measurement,setting,value
Human DND1 (Dead end protein homolog 1) RRM2 domain (139-217) (domain or fragment),stoichiometry N,[1],2
same,stoichiometry N,[2],2
